According to the supplement of paper PMC11246515:
± gives the standard deviation of the averaged measurements.

Experiment: total protein half-life in vivo (active degradation + dilution); higher = more stable protein
[1] = E. coli NCM3722 delta-clpP delta-lon delta-hslV, growth: N-lim chemostat, doubling time 6 h
[2] = E. coli NCM3722 delta-clpP, growth: N-lim chemostat, doubling time 6 h
[3] = E. coli NCM3722 delta-hslV, growth: N-lim chemostat, doubling time 6 h
[4] = E. coli NCM3722 delta-lon, growth: N-lim chemostat, doubling time 6 h
[5] = E. coli NCM3722 delta-smpB, growth: N-lim chemostat, doubling time 6 h
[6] = wild type E. coli NCM3722, growth: C-lim chemostat, doubling time 3 h
[7] = wild type E. coli NCM3722, growth: C-lim chemostat, doubling time 6 h
[8] = wild type E. coli NCM3722, growth: C-lim chemostat, doubling time 12 h
[9] = wild type E. coli NCM3722, growth: N-lim chemostat, doubling time 6 h
[10] = wild type E. coli NCM3722, growth: N-lim chemostat, doubling time 12 h
[11] = wild type E. coli NCM3722, growth: P-lim chemostat, doubling time 12 h
[12] = wild type E. coli NCM3722, growth: P-lim chemostat, doubling time 6 h

## MVTFHTNHGDIVIKTFDDKAPETVKNFLDYCREGFYNNTIFHRVINGFMIQGGGFEPGMKQKATKEPIKNEANNGLKNTRGTLAMARTQAPHSATAQFFINVVDNDFLNFSGESLQGWGYCVFAEVVDGMDVVDKIKGVATGRSGMHQDVPKEDVIIESVTVSE
[1]
  total protein half-life in vivo: 4.83 ± 0.65 h
[2]
  total protein half-life in vivo: 4.38 h
[3]
  total protein half-life in vivo: 4.92 ± 0.92 h
[4]
  total protein half-life in vivo: 4.83 ± 0.27 h
[5]
  total protein half-life in vivo: 4.11 ± 0.046 h
[6]
  total protein half-life in vivo: 3.3 ± 0.97 h
[7]
  total protein half-life in vivo: 6.03 ± 0.56 h
[8]
  total protein half-life in vivo: 9.92 ± 0.88 h
[9]
  total protein half-life in vivo: 4.507 ± 0.039 h
[10]
  total protein half-life in vivo: 7.49 ± 1.2 h
[11]
  total protein half-life in vivo: 11.1 ± 0.3 h

## MPSTPEEKKKVLTRVRRIRGQIDALERSLEGDAECRAILQQIAAVRGAANGLMAEVLESHIRETFDRNDCYSREVSQSVDDTIELVRAYLK [P0AAP3]
[1]
  total protein half-life in vivo: 6.53 ± 0.38 h
[2]
  total protein half-life in vivo: 5.29 ± 0.36 h
[3]
  total protein half-life in vivo: 4.99 ± 0.14 h
[4]
  total protein half-life in vivo: > 8 h
[5]
  total protein half-life in vivo: 3.92 ± 0.13 h
[6]
  total protein half-life in vivo: 2.5 ± 0.24 h
[7]
  total protein half-life in vivo: 5.52 ± 0.22 h
[8]
  total protein half-life in vivo: 8.3 ± 1.8 h
[9]
  total protein half-life in vivo: 4.16 ± 0.36 h
[10]
  total protein half-life in vivo: 7.59 h
[12]
  total protein half-life in vivo: 4.67 ± 1.9 h
[11]
  total protein half-life in vivo: 8.57 ± 0.52 h

## MNNFNLHTPTRILFGKGAIAGLREQIPHDARVLITYGGGSVKKTGVLDQVLDALKGMDVLEFGGIEPNPAYETLMNAVKLVREQKVTFLLAVGGGSVLDGTKFIAAAANYPENIDPWHILQTGGKEIKSAIPMGCVLTLPATGSESNAGAVISRKTTGDKQAFHSAHVQPVFAVLDPVYTYTLPPRQVANGVVDAFVHTVEQYVTKPVDAKIQDRFAEGILLTLIEDGPKALKEPENYDVRANVMWAATQALNGLIGAGVPQDWATHMLGHELTAMHGLDHAQTLAIVLPALWNEKRDTKRAKLLQYAERVWNITEGSDDERIDAAIAATRNFFEQLGVPTHLSDYGLDGSSIPALLKKLEEHGMTQLGENHDITLDVSRRIYEAAR
[2]
  total protein half-life in vivo: 5.02 ± 0.23 h
[3]
  total protein half-life in vivo: 4.48 ± 0.25 h
[4]
  total protein half-life in vivo: 4.949 ± 0.041 h
[5]
  total protein half-life in vivo: 4.48 ± 0.23 h
[6]
  total protein half-life in vivo: 3.27 ± 0.089 h
[7]
  total protein half-life in vivo: 6.48 ± 1 h
[8]
  total protein half-life in vivo: 11.6 ± 0.92 h
[9]
  total protein half-life in vivo: 5.22 ± 0.38 h
[10]
  total protein half-life in vivo: 7.834 ± 0.065 h
[12]
  total protein half-life in vivo: 5.35 ± 0.47 h
[11]
  total protein half-life in vivo: 10.2 ± 0.89 h

## MQALLLEQQDGKTLASVQTLDESRLPEGDVTVDVHWSSLNYKDALAITGKGKIIRNFPMIPGIDFAGTVRTSEDPRFHAGQEVLLTGWGVGENHWGGLAEQARVKGDWLVAMPQGLDARKAMIIGTAGFTAMLCVMALEDAGVRPQDGEIVVTGASGGVGSTAVALLHKLGYQVVAVSGRESTHEYLKSLGASRVLPRDEFAESRPLEKQVWAGAIDTVGDKVLAKVLAQMNYGGCVAACGLAGGFTLPTTVMPFILRNVRLQGVDSVMTPPERRAQAWQRLVADLPESFYTQAAKEISLSEAPNFAEAIINNQIQGRTLVKVN
[1]
  total protein half-life in vivo: 5.18 ± 0.35 h
[2]
  total protein half-life in vivo: 5.271 ± 0.034 h
[3]
  total protein half-life in vivo: 5.7 ± 1.2 h
[4]
  total protein half-life in vivo: 5.67 ± 0.37 h
[5]
  total protein half-life in vivo: 4.6639 ± 0.0045 h
[6]
  total protein half-life in vivo: 3.03 ± 0.091 h
[8]
  total protein half-life in vivo: 10.63 ± 0.024 h
[9]
  total protein half-life in vivo: 5.25 ± 0.21 h
[10]
  total protein half-life in vivo: 9.06 ± 0.27 h
[12]
  total protein half-life in vivo: 6.5 ± 0.39 h
[11]
  total protein half-life in vivo: 13 ± 0.96 h

## MNKTTEYIDAMPIAASEKAALPKTDIRAVHQALDAEHRTWAREDDSPQGSVKARLEQAWPDSLADGQLIKDDEGRDQLKAMPEAKRSSMFPDPWRTNPVGRFWDRLRGRDVTPRYLARLTKEEQESEQKWRTVGTIRRYILLILTLAQTVVATWYMKTILPYQGWALINPMDMVGQDLWVSFMQLLPYMLQTGILILFAVLFCWVSAGFWTALMGFLQLLIGRDKYSISASTVGDEPLNPEHRTALIMPICNEDVNRVFAGLRATWESVKATGNAKHFDVYILSDSYNPDICVAEQKAWMELIAEVGGEGQIFYRRRRRRVKRKSGNIDDFCRRWGSQYSYMVVLDADSVMTGDCLCGLVRLMEANPNAGIIQSSPKASGMDTLYARCQQFATRVYGPLFTAGLHFWQLGESHYWGHNAIIRVKPFIEHCALAPLPGEGSFAGSILSHDFVEAALMRRAGWGVWIAYDLPGSYEELPPNLLDELKRDRRWCHGNLMNFRLFLVKGMHPVHRAVFLTGVMSYLSAPLWFMFLALSTALQVVHALTEPQYFLQPRQLFPVWPQWRPELAIALFASTMVLLFLPKLLSILLIWCKGTKEYGGFWRVTLSLLLEVLFSVLLAPVRMLFHTVFVVSAFLGWEVVWNSPQRDDDSTSWGEAFKRHGSQLLLGLVWAVGMAWLDLRFLFWLAPIVFSLILSPFVSVISSRATVGLRTKRWKLFLIPEEYSPPQVLVDTDRFLEMNRQRSLDDGFMHAVFNPSFNALATAMATARHRASKVLEIARDRHVEQALNETPEKLNRDRRLVLLSDPVTMARLHFRVWNSPERYSSWVSYYEGIKLNPLALRKPDAASQ
[1]
  total protein half-life in vivo: 6.7 ± 0.34 h
[2]
  total protein half-life in vivo: 6.54 ± 0.33 h
[3]
  total protein half-life in vivo: 6.46 ± 0.79 h
[4]
  total protein half-life in vivo: 6.41 ± 0.39 h
[5]
  total protein half-life in vivo: 5.99 ± 0.24 h
[6]
  total protein half-life in vivo: 3.26 ± 0.39 h
[7]
  total protein half-life in vivo: 6.45 ± 0.66 h
[9]
  total protein half-life in vivo: 6.22 ± 0.42 h
[10]
  total protein half-life in vivo: 13.4 ± 0.32 h
[12]
  total protein half-life in vivo: 6.3 ± 0.32 h
[11]
  total protein half-life in vivo: 13.3 ± 1.8 h
